Measured values: paper PMC2248580

Molecular target: human activated blood coagulation factor X (FXa) (human)
Assay: SPR; […]; 37°C; HBS (10 mM Hepes, 150 mM NaCl, 5 mM CaCl2, 0.005% P20, pH 7.4); Langmuir fit; […]

human activated blood coagulation factor X (FXa) (human), sequence (P00742 whole entry): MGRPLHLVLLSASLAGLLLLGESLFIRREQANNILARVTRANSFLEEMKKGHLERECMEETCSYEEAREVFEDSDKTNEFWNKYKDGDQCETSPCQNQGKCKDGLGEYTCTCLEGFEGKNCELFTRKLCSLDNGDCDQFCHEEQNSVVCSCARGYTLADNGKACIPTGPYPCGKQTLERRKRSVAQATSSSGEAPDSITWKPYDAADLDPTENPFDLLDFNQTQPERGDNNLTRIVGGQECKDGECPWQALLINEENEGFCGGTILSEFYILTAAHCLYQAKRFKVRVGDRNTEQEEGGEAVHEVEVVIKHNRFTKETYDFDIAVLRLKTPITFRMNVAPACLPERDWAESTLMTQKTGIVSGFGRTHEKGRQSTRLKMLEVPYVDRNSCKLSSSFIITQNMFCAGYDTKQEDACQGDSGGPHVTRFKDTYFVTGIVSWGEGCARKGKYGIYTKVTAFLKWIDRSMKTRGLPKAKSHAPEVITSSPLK

Binder | Kd [nM] | koff [s⁻¹] | kon [M⁻¹ s⁻¹]
isoform A of ammodytoxin from Vipera ammodytes ammodytes venom (enzyme) SLLEFGMMILGETGKNPLTSYSFYGCYCGVGGKGTPKDATDRCCFVHDCCYGNLPDCSPKTDRYKYHRENGAIVCGKGTSCENRICECDRAAAICFRKNLKTYNYIYRNYPDFLCKKESEKC | 30 | 0.007 | 220000
Non-pancreatic secreted human group IIA phospholipase A2 (enzyme) NLVNFHRMIKLTTGKEAALSYGFYGCHCGVGGRGSPKDATDRCCVTHDCCYKRLEKRGCGTKFLSYKFSNSGSRITCAKQDSCRSQLCECDKAAATCFARNKTTYNKKYQYYSNKHCRGSTPRC | 14 | 0.029 | 2e+06
